Experimental data as given in US20160129078A1, “Rhomboid Proteins and Uses Thereof” (Queen's University at Kingston, priority 2014, published 2016).

B1: At1g74130 M: 7/8 M-form splice variant of Arabidopsis At1g74130 rhomboid protein (protein, listed as Arabidopsis thaliana)
chain: MHAIFCRRVAVGCSSPQLTKLVTKQASQSRHSLSHLLPFDLSSRFVPPYVVSRSARVHGFFAGKLGNTNLKLKFGNVMESRAGFFSSELPSHGFESGGFTGFQKRGWKSWINGANGVVFGLVIANAAVFTMWRVLGKDNMWMVKNFMLSRYSFMTGRIHTLITSGFSHVGATHIILNMMGLCYFGARIARSFGPRYLLKLYFAGALGGSVFFLSSHALSVISLKGQRVVPKDQLKVPIGKLGANGPVYAITLLDMLLYPKVTTYFGLMLRVPVFAGIYSLGLNIIKMLEVCMMGKTTIP
B2: At1g74130 S: 6/7 S-form splice variant of Arabidopsis At1g74130 rhomboid protein (protein, listed as Arabidopsis thaliana)
chain: MHAIFCRRVAVGCSSPQLTKLVTKQASQSRHSLSHLLPFDLSSRFVPPYVVSRSARVHGFFAGKLGNTNLKLKFGNVMESRAGFFSSELPSHGFESGGFTGFQKRGWKSWINGANGVVFGLVIANAAVFTMWRVLGKDNMWMVKNFMLSRYSFMTGRIHTLITSGFSHVGATHIILNMMGLCYFGARIARSFGPRYLLKLYFAGALGGSVFFLSSHALSVISLKGQRVVPKDQLKVPIGKLGANGPVYAITLLDMLLYPKVTTYFGLMLRVPVFAVRESIA

How the values were obtained:
[1] = system: E. coli; experiment: Colony formation of At1g74130-expressing E. coli on agar with increasing ampicillin; assay type: cell-based, Escherichia coli; settings: protein expressed in E. coli JM109(DE3) from pET20b; solid agar media; susceptibility at higher concentrations
Experimental: Introduction and expression of At1g74130 was tested in E. coli, by subcloning the corresponding cDNA sequence into a T7 promoter-containing plasmid vector (pET20b) and JM109(DE3), a bacterial strain commonly used for expressing foreign proteins. Two alternative splice variants of At1g74130 were derived by RT-PCR cloning and tested along with the full version of At1g74130, also derived by RT-PCR cloning (see, e.g., FIGS. 3, 4, and 5). The alternative splice variants designated 6/7 and 7/8 are shown in FIGS. 1C and 1D, respectively. A similar procedure was used to express the At1g25290 and UBAC2 variants (see FIGS. 6, 7, and 8).
Alterations to protein translocation were investigated using the plasmid-borne multicopy gene, β-lactamase. The level of β-lactamase is a sensitive monitor of protein translocation and is translocated into the periplasm, where it detoxifies the antibiotic ampicillin, thereby conferring ampicillin-resistance to cells. Because the level of antibiotic resistance conferred also reflects the level of protein transport activity, the level of ampicillin resistance was determined for At1g74130 expressing cells and compared to that of control vector-containing cells on solid agar media containing increasing concentrations of ampicillin. […]

[2] = system: MDA-MB-231 breast cancer cells; experiment: MTT viability assay, sensitization to lapatinib; assay type: cell-based, human; settings: co-treatment with lapatinib; most prominent at 10 or 15 uM after 48 and 72 hours; 5 or 10 ug protein
Text: (§1) Experiments were thus conducted to assess the ability of At1g74130 proteins or variants to enhance the sensitivity of two breast cancer cell lines to the chemotherapeutic drug lapatinib. The breast cancer cell lines selected for these assays were MDA-MB-231 and MDA-MB-468, two cell lines used frequently in cancer research. Any impact on the cells' ability to pump or transport drugs (in and out) may alter the efficacy a chemotherapeutic drug, e.g., by enhancing levels of cell death) or by increasing effectiveness at lower dosage levels. The design of the breast cancer cell assays was similar to that used for bacteria in the above examples, results, and figures. In these studies, the widely used MTT (methyl thiazolyl diphenyl-tetrazolium bromide) viability assay procedure was used to assess any impact exerted by At1g74130 variant S (see, for example, the MTT procedure described by Nagaria, T. S., et al., Flavopiridol synergizes with sorafenib to induce cytotoxicity and potentiate antitumorigenic activity in EGFR/HER-2 and mutant RAS/RAF breast cancer model systems, Neoplasia, 15:939-951, 2013).
(§2) Cells were cultured at 37° C. in 96-well plates (10,000 cells in 100 ul media per well) for 24-48 hours to near confluency. […] The assays were then read at 570 nm using a microplate scanning spectrophotometer. […]

[3] = system: MDA-MB-468 breast cancer cells; experiment: MTT viability assay, sensitization to lapatinib; assay type: cell-based, human; settings: co-treatment with lapatinib; most prominent at 10 or 15 uM after 48 and 72 hours; 5 or 10 ug protein
Text: as §1, §2

| Molecule | ampicillin concentration at which expressing cells form colonies [1] [mg/mL] | increase in level of cell death [2] [%] | increase in level of cell death [3] [%] |
| --- | --- | --- | --- |
| B1 | 1.5 |  |  |
| B2 |  | 20 to 40 | 20 to 40 |
